125 sequences from the supplement of paper PMC9112550, “Optimization of the antimicrobial peptide Bac7 by deep mutational scanning” (BMC Biology, 2022) can be followed below.

The series concerns Escherichia coli TOP10. The series can be described thus: shrunken log2 fold change of peptide-encoding DNA abundance (4.5 h post-induction vs induction); higher = less antimicrobial activity (less host growth inhibition). Conditions: time post-induction: 4.5 h; library: site-saturation at positions 5, 18, 19, 20.
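Note: peptides expressed intracellularly from a pBAD plasmid library in pooled LB shake-flask culture, induced with 0.3% L-arabinose, DNA abundance read by NGS, three biological replicates, DESeq2 with apeglm shrinkage.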

Regarding RRIRDRPPRLPRPRPRPKSCPRP, the “shrunken log2 fold change” value is -0.0117. For the sequence RRIRIRPPRLPRPRPRPRISPRP, the “shrunken log2 fold change” value was -0.127. As to RRIRFRPPRLPRPRPRPDMYPRP, the “shrunken log2 fold change” value is -0.00804. With RRIRGRPPRLPRPRPRPHWPPRP the figure was 2.63; with RRIRDRPPRLPRPRPRPIQIPRP, -0.384; with RRIRRRPPRLPRPRPRPADCPRP, 0.0869. With RRIRKRPPRLPRPRPRPWISPRP the figure was 0.0313; with RRIRMRPPRLPRPRPRPKEDPRP, 1.82. With RRIRSRPPRLPRPRPRPCHIPRP the figure was -0.872; with RRIRFRPPRLPRPRPRPSMKPRP, -0.753. With RRIRFRPPRLPRPRPRPDNFPRP, the “shrunken log2 fold change” value was -0.204. For the sequence RRIRNRPPRLPRPRPRPILRPRP, the “shrunken log2 fold change” value was -0.455. With RRIRGRPPRLPRPRPRPDKIPRP the figure was 0.813; with RRIRKRPPRLPRPRPRPVLSPRP, 0.3; with RRIRTRPPRLPRPRPRPVCKPRP, -0.0432. As for RRIRYRPPRLPRPRPRPAPVPRP, the “shrunken log2 fold change” value was found to be 0.125. Regarding RRIRKRPPRLPRPRPRPYTAPRP, the “shrunken log2 fold change” value is -0.338. With RRIRDRPPRLPRPRPRPMFPPRP, the “shrunken log2 fold change” value was -0.257. With RRIRIRPPRLPRPRPRPNREPRP the figure was -0.0355. For RRIRTRPPRLPRPRPRPYWGPRP, the “shrunken log2 fold change” value is -0.0337. With RRIRCRPPRLPRPRPRPFRGPRP, the “shrunken log2 fold change” value was -0.151. On to RRIRRRPPRLPRPRPRPYSSPRP, for which the “shrunken log2 fold change” value was -0.0612. Regarding RRIRDRPPRLPRPRPRPKNSPRP, the “shrunken log2 fold change” value was 0.788. With RRIRCRPPRLPRPRPRPYHQPRP, the “shrunken log2 fold change” value was -0.819. As for RRIRKRPPRLPRPRPRPERQPRP, the “shrunken log2 fold change” value came to 0.0351. With RRIRSRPPRLPRPRPRPPKHPRP the figure was 0.2.

For RRIRCRPPRLPRPRPRPKHCPRP, the “shrunken log2 fold change” value is -0.166.

With RRIRYRPPRLPRPRPRPPLYPRP, the “shrunken log2 fold change” value came to 0.755. With RRIRCRPPRLPRPRPRPNPNPRP the figure was -0.135; with RRIRLRPPRLPRPRPRPGCGPRP, 0.49.

With RRIRYRPPRLPRPRPRPIYLPRP, the “shrunken log2 fold change” value is -0.0172. In the case of RRIRKRPPRLPRPRPRPWWIPRP, the “shrunken log2 fold change” value was -0.0457. Take RRIRSRPPRLPRPRPRPQWTPRP: the “shrunken log2 fold change” value is -0.0105. As for RRIRMRPPRLPRPRPRPYITPRP, the “shrunken log2 fold change” value was -0.393. With RRIRYRPPRLPRPRPRPRHAPRP the figure was -0.0916; with RRIRNRPPRLPRPRPRPEYRPRP, -0.159; with RRIRTRPPRLPRPRPRPQIEPRP, -0.107. With RRIRKRPPRLPRPRPRPAKGPRP the figure was 0.136; with RRIRMRPPRLPRPRPRPVNSPRP, 0.00706. With RRIRCRPPRLPRPRPRPNWPPRP the figure was 0.0717; with RRIRLRPPRLPRPRPRPDMGPRP, 0.0446; with RRIRKRPPRLPRPRPRPAYAPRP, -0.085. As for RRIRSRPPRLPRPRPRPPIAPRP, the “shrunken log2 fold change” value is 2.36. RRIRHRPPRLPRPRPRPIAGPRP: the “shrunken log2 fold change” value is 0.0113. With RRIRHRPPRLPRPRPRPDAHPRP the figure was -0.119; with RRIRPRPPRLPRPRPRPREGPRP, 0.891; with RRIRLRPPRLPRPRPRPDKFPRP, -0.26. RRIRLRPPRLPRPRPRPGHCPRP: the “shrunken log2 fold change” value amounted to 0.0372. Regarding RRIRLRPPRLPRPRPRPGVQPRP, the “shrunken log2 fold change” value is 0.0642. On to RRIRTRPPRLPRPRPRPWFDPRP, for which the “shrunken log2 fold change” value is -0.247. For the sequence RRIRRRPPRLPRPRPRPSSAPRP, the “shrunken log2 fold change” value is 0.421.

For the sequence RRIRTRPPRLPRPRPRPQCRPRP, the “shrunken log2 fold change” value was -0.259.

As to RRIRNRPPRLPRPRPRPWLCPRP, the “shrunken log2 fold change” value turned out to be 0.00252. Turning to RRIRKRPPRLPRPRPRPHEQPRP, the “shrunken log2 fold change” value was -0.00968. In the case of RRIRNRPPRLPRPRPRPAWDPRP, the “shrunken log2 fold change” value came out at 0.151. With RRIRCRPPRLPRPRPRPLTWPRP the figure was -0.16; with RRIRCRPPRLPRPRPRPQPVPRP, 0.399; with RRIRERPPRLPRPRPRPPCSPRP, -0.258. On to RRIRDRPPRLPRPRPRPVAQPRP, for which the “shrunken log2 fold change” value is 0.616. With RRIRARPPRLPRPRPRPCTMPRP the figure was -0.207; with RRIRERPPRLPRPRPRPCSRPRP, -0.00322; with RRIRRRPPRLPRPRPRPMIWPRP, 0.0834. With RRIRMRPPRLPRPRPRPNLEPRP the figure was 0.284. As for RRIRNRPPRLPRPRPRPEGQPRP, the “shrunken log2 fold change” value was -0.00174. In the case of RRIRQRPPRLPRPRPRPDHLPRP, the “shrunken log2 fold change” value was determined as 0.0112. Regarding RRIRSRPPRLPRPRPRPIPHPRP, the “shrunken log2 fold change” value was -0.184. For RRIRRRPPRLPRPRPRPIHMPRP, the “shrunken log2 fold change” value is -0.206. As to RRIRGRPPRLPRPRPRPMPHPRP, the “shrunken log2 fold change” value turned out to be 0.523. For the sequence RRIRVRPPRLPRPRPRPPQIPRP, the “shrunken log2 fold change” value is 0.22. With RRIRPRPPRLPRPRPRPNLTPRP the figure was 0.0262.

In the case of RRIRERPPRLPRPRPRPQAFPRP, the “shrunken log2 fold change” value was -0.017. RRIRLRPPRLPRPRPRPKFVPRP: the “shrunken log2 fold change” value is -0.055. With RRIRMRPPRLPRPRPRPGPDPRP the figure was 0.768; with RRIRTRPPRLPRPRPRPFIGPRP, -0.353.

For the sequence RRIRSRPPRLPRPRPRPYMHPRP, the “shrunken log2 fold change” value is -0.395. With RRIRMRPPRLPRPRPRPQQHPRP the figure was 0.0483; with RRIRSRPPRLPRPRPRPSIHPRP, -0.479; with RRIRRRPPRLPRPRPRPSLWPRP, 0.293. On to RRIRDRPPRLPRPRPRPFKGPRP, for which the “shrunken log2 fold change” value was -0.617.

Take RRIRFRPPRLPRPRPRPTFKPRP: the “shrunken log2 fold change” value was found to be 0.0617. For the sequence RRIRCRPPRLPRPRPRPIKLPRP, the “shrunken log2 fold change” value was -0.63. With RRIRVRPPRLPRPRPRPNYNPRP the figure was -0.76; with RRIRQRPPRLPRPRPRPSAYPRP, -0.247; with RRIRNRPPRLPRPRPRPFIVPRP, -0.279.

Take RRIRHRPPRLPRPRPRPRHWPRP: the “shrunken log2 fold change” value is -0.0269. With RRIRKRPPRLPRPRPRPERWPRP, the “shrunken log2 fold change” value was determined as 1.15.

Turning to RRIRPRPPRLPRPRPRPFALPRP, the “shrunken log2 fold change” value was 0.238. With RRIRCRPPRLPRPRPRPDCWPRP the figure was 0.23; with RRIRTRPPRLPRPRPRPPGRPRP, 0.586. With RRIRRRPPRLPRPRPRPGQYPRP the figure was -0.16; with RRIRNRPPRLPRPRPRPPADPRP, 0.595; with RRIRNRPPRLPRPRPRPPYLPRP, -0.269.

Turning to RRIRRRPPRLPRPRPRPNFHPRP, the “shrunken log2 fold change” value was 0.75. With RRIRFRPPRLPRPRPRPEVYPRP the figure was 0.000414; with RRIRFRPPRLPRPRPRPPLDPRP, 0.461.

Consider RRIRKRPPRLPRPRPRPMLGPRP, for which the “shrunken log2 fold change” value turned out to be 0.00289.

In the case of RRIRFRPPRLPRPRPRPWKGPRP, the “shrunken log2 fold change” value is -0.0869. With RRIRQRPPRLPRPRPRPLKDPRP the figure was -0.164; with RRIRMRPPRLPRPRPRPMHPPRP, 0.0065; with RRIRVRPPRLPRPRPRPSFIPRP, -0.749. Consider RRIRTRPPRLPRPRPRPSIVPRP, for which the “shrunken log2 fold change” value is -0.427. As for RRIRQRPPRLPRPRPRPVYLPRP, the “shrunken log2 fold change” value was -0.206. Turning to RRIRPRPPRLPRPRPRPYLTPRP, the “shrunken log2 fold change” value is -0.689.

Turning to RRIRNRPPRLPRPRPRPPDCPRP, the “shrunken log2 fold change” value is 0.036. Regarding RRIRLRPPRLPRPRPRPAIAPRP, the “shrunken log2 fold change” value turned out to be 0.118. For the sequence RRIRIRPPRLPRPRPRPVQKPRP, the “shrunken log2 fold change” value came out at 0.0154. With RRIRNRPPRLPRPRPRPCSHPRP the figure was -0.331.

Take RRIRYRPPRLPRPRPRPRLHPRP: the “shrunken log2 fold change” value was -0.415. Consider RRIRHRPPRLPRPRPRPNYHPRP, for which the “shrunken log2 fold change” value is -0.83. On to RRIRWRPPRLPRPRPRPDPAPRP, for which the “shrunken log2 fold change” value amounted to 0.663. Turning to RRIRIRPPRLPRPRPRPKWKPRP, the “shrunken log2 fold change” value was -0.152. On to RRIRMRPPRLPRPRPRPLQWPRP, for which the “shrunken log2 fold change” value was found to be 0.104.

As to RRIRLRPPRLPRPRPRPLWVPRP, the “shrunken log2 fold change” value is 0.0349. RRIRPRPPRLPRPRPRPSYMPRP: the “shrunken log2 fold change” value was -0.962. Take RRIRNRPPRLPRPRPRPPIKPRP: the “shrunken log2 fold change” value is -0.279.

For RRIRQRPPRLPRPRPRPEVLPRP, the “shrunken log2 fold change” value stood at 0.0411. With RRIRDRPPRLPRPRPRPTKFPRP the figure was 0.138; with RRIRPRPPRLPRPRPRPAAQPRP, 0.721; with RRIRNRPPRLPRPRPRPLGYPRP, -0.165.

In the case of RRIRCRPPRLPRPRPRPPEAPRP, the “shrunken log2 fold change” value is 0.968. With RRIRFRPPRLPRPRPRPPFDPRP, the “shrunken log2 fold change” value worked out at 0.188. As to RRIRERPPRLPRPRPRPTHYPRP, the “shrunken log2 fold change” value is -0.312. For RRIRPRPPRLPRPRPRPLHAPRP, the “shrunken log2 fold change” value was determined as 0.282. Consider RRIRQRPPRLPRPRPRPWIQPRP, for which the “shrunken log2 fold change” value was -0.251. As for RRIRMRPPRLPRPRPRPVRMPRP, the “shrunken log2 fold change” value came out at 0.132.
